{"source": "paper PMC2670979", "parents": {"B1": {"name": "GST-Miro1 WT [not stated] / KIF5C [modified: 35S-methionine label; 35S-methionine label] [not stated] (parent)", "chain 1": "MKKDVRILLVGEPRVGKTSLIMSLVSEEFPEEVPPRAEEITIPADVTPERVPTHIVDYSEAEQSDEQLHQEISQANVICIVYAVNNKHSIDKVTSRWIPLINERTDKDSRLPLILVGNKSDLVEYSSMETILPIMNQYTEIETCVECSAKNLKNISELFYYAQKAVLHPTGPLYCPEEKEMKPACIKALTRIFKISDQDNDGTLNDAELNFFQRICFNTPLAPQALEDVKNVVRKHISDGVADSGLTLKGFLFLHTLFIQRGRHETTWTVLRRFGYDDDLDLTPEYLFPLLKIPPDCTTELNHHAYLFLQSTFDKHDLDRDCALSPDELKDLFKVFPYIPWGPDVNNTVCTNERGWITYQGFLSQWTLTTYLDVQRCLEYLGYLGYSILTEQESQASAVTVTRDKKIDLQKKQTQRNVFRCNVIGVKNCGKSGVLQALLGRNLMRQKKIREDHKSYYAINTVYVYGQEKYLLLHDISESEFLTEAEIICDVVCLVYDVSNPKSFEYCARIFKQHFMDSRIPCLIVAAKSDLHEVKQEYSISPTDFCRKHKMPPPQAFTCNTADAPSKDIFVKLTTMAMYPHVTQADLKSSTFWLRASFGATVFAVLGFAMYKALLKQR", "chain 2": "MADPAECSIKVMCRFRPLNEAEILRGDKFIPKFKGDETVVIGQGKPYVFDRVLPPNTTQEQVYNACAKQIVKDVLEGYNGTIFAYGQTSSGKTHTMEGKLHDPQLMGIIPRIAHDIFDHIYSMDENLEFHIKVSYFEIYLDKIRDLLDVSKTNLAVHEDKNRVPYVKGCTERFVSSPEEVMDVIDEGKANRHVAVTNMNEHSSRSHSIFLINIKQENVETEKKLSGKLYLVDLAGSEKVSKTGAEGAVLDEAKNINKSLSALGNVISALAEGTKTHVPYRDSKMTRILQDSLGGNCRTTIVICCSPSVFNEAETKSTLMFGQRAKTIKNTVSVNLELTAEEWKKKYEKEKEKNKTLKNVIQHLEMELNRWRNGEAVPEDEQISAKDQKNLEPCDNTPIIDNIAPVVAGISTEEKEKYDEEISSLYRQLDDKDDEINQQSQLAEKLKQQMLDQDELLASTRRDYEKIQEELTRLQIENEAAKDEVKEVLQALEELAVNYDQKSQEVEDKTRANEQLTDELAQKTTTLTTTQRELSQLQELSNHQKKRATEILNLLLKDLGEIGGIIGTNDVKTLADVNGVIEEEFTMARLYISKMKSEVKSLVNRSKQLESAQMDSNRKMNASERELAACQLLISQHEAKIKSLTDYMQNMEQKRRQLEESQDSLSEELAKLRAQEKMHEVSFQDKEKEHLTRLQDAEEMKKALEQQMESHREAHQKQLSRLRDEIEEKQKIIDEIRDLNQKLQLEQEKLSSDYNKLKIEDQEREMKLEKLLLLNDKREQAREDLKGLEETVSRELQTLHNLRKLFVQDLTTRVKKSVELDNDDGGGSAAQKQKISFLENNLEQLTKVHKQLVRDNADLRCELPKLEKRLRATAERVKALESALKEAKENAMRDRKRYQQEVDRIKEAVRAKNMARRAHSAQIAKPIRPGHYPASSPTAVHAIRGGGGSSSNSTHYQK"}}}
{"variants_of": "B1", "test": "GST pull-down of in vitro translated 35S-labeled protein", "conditions": "with KIF5C [modified: 35S-methionine label, 2 mM Ca2+, normalized to 100 at 0 mM Ca2+, parent: 70, read off a plot"}
{"variant": "chain 1 E208K E328K", "screen value": 98}
